Test [1] addresses T1, 人CD20胞外区多肽 (human).
T1 construct: Synthetic 47-residue peptide of the extracellular region of human CD20 (Sangon); also called CD20多肽; CD20抗原
T1 peptide: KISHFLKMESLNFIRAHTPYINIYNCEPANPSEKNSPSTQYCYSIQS
Kind of test: phage ELISA, CD20 extracellular peptide coated at 2.5 μg/mL, OD450.

In test [2] the target is T2, Raji细胞表面CD20蛋白 (human, UniProt P11836 1-297).
T2 construct: whole, on cells; Raji cells used as CD20-positive cells; also called Raji细胞表面CD20分子
T2 sequence (looked up): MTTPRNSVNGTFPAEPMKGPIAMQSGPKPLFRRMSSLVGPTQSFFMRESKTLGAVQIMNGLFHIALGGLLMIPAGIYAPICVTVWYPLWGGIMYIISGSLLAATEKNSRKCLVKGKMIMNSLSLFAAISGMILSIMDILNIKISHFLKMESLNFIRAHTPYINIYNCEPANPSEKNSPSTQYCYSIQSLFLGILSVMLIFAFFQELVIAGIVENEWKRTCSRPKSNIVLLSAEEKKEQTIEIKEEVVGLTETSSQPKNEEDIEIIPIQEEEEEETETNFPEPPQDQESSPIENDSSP
Kind of test: immunofluorescence on fixed Raji cells, sdAb 10 μg/mL, fluorescent anti-His detection.

Test [3] addresses T1, 人CD20胞外区多肽. Kind of test: ELISA, CD20 extracellular peptide coated at 2.5 μg/mL, BsNb 30 to 5 μg/mL, HRP anti-His detection, OD450. For orientation: ELISA stands for enzyme-linked immunosorbent assay.
The target of test [4] is T2, Raji细胞表面CD20蛋白. Kind of test: flow cytometry, FITC-labelled BsNb 100 μg/mL on Raji cells. For orientation: In flow cytometry, cells or beads pass a laser one at a time.

B1: sdAb11 (抗CD20单域重链抗体) (VHH)
VHH: DVQLVESGGGLVQPGGSLRLSCTAPGFTSNNCGMDWWRQAAGKQREWVSSIATDGSTSYADSVKGRFTISKDKAKDTVFLQMNSLKPEDTAMYNCAMRRWGWGCLGRLWQSDFGYWGQGTQVTVSS
notes: Expressed in E. coli BL21(DE3) from VHH-pET-25b-SBP and purified on Ni-NTA; also called CD20单域抗体; Anti-CD20 sdAb; not shown: tags from vector pET-25b-SBP (His tag detected with anti-His antibody; SBP)
Turning to B1, the binding result with 人CD20胞外区多肽 [1] and in the test with Raji细胞表面CD20蛋白 [2] was “binds” in each case.

B2: Anti-CD20/CD3 BsNb (bispecific antibody)
chain: EVQLLEEVQLVESGGGLVQPGGSLRLSCAASGFTFDDYGMSWVRQAPGKWLEWVSDISWNGGSTYYADSVKGRFTISRDNAENTLYLQMNSLKPDDTAVYYCAKMGEGGWGANDYWGQGTQVTVSSSGGGGSGGGGSGGGGSMAQVQLQMADVQLVESGGGLVQPGGSLRLSCTAPGFTSNNCGMDWWRQAAGKQREWVSSIATDGSTSYADSVKGRFTISKDKAKDTVFLQMNSLKPEDTAMYNCAMRRWGWGCLGRLWQSDFGYWGQGTQVTVSS
notes: Single chain: anti-CD20 sdAb, linker, anti-CD3 sdAb; also called CD20 sdAb-linker-CD3 sdAb; 抗CD20和CD3双特异性单域抗体
Regarding B2, the binding result in the test with 人CD20胞外区多肽 [3] and with Raji细胞表面CD20蛋白 [4] was “binds” each time.

Source of the values: patent publication CN114685664A (UNIV INNER MONGOLIA AGRI, dated 2022).
